± gives the standard deviation of the averaged measurements.
Assay: total protein half-life in vivo (active degradation + dilution); higher = more stable protein
[1] = E. coli NCM3722 delta-clpP delta-lon delta-hslV, growth: N-lim chemostat, doubling time 6 h
[2] = E. coli NCM3722 delta-smpB, growth: N-lim chemostat, doubling time 6 h
[3] = wild type E. coli NCM3722, growth: C-lim chemostat, doubling time 6 h
[4] = wild type E. coli NCM3722, growth: C-lim chemostat, doubling time 12 h
[5] = wild type E. coli NCM3722, growth: N-lim chemostat, doubling time 6 h
[6] = wild type E. coli NCM3722, growth: N-lim chemostat, doubling time 12 h
[7] = E. coli NCM3722 delta-clpP, growth: N-lim chemostat, doubling time 6 h
[8] = E. coli NCM3722 delta-hslV, growth: N-lim chemostat, doubling time 6 h
[9] = E. coli NCM3722 delta-lon, growth: N-lim chemostat, doubling time 6 h
[10] = wild type E. coli NCM3722, growth: C-lim chemostat, doubling time 3 h
[11] = wild type E. coli NCM3722, growth: P-lim chemostat, doubling time 12 h
[12] = wild type E. coli NCM3722, growth: P-lim chemostat, doubling time 6 h

For “MSQAKSNKMGVVQLTILTMVNMMGSGIIMLPTKLAEVGTISIISWLVTAVGSMALAWAFAKCGMFSRKSGGMGGYAEYAFGKSGNFMANYTYGVSLLIANVAIAISAVGYGTELLGASLSPVQIGLATIGVLWICTVANFGGARITGQISSITVWGVIIPVVGLCIIGWFWFSPTLYVDSWNPHHAPFFSAVGSSIAMTLWAFLGLESACANTDVVENPERNVPIAVLGGTLGAAVIYIVSTNVIAGIVPNMELANSTAPFGLAFAQMFTPEVGKVIMALMVMSCCGSLLGWQFTIAQVFKSSSDEGYFPKIFSRVTKVDAPVQGMLTIVIIQSGLALMTISPSLNSQFNVLVNLAVVTNIIPYILSMAALVIIQKVANVPPSKAKVANFVAFVGAMYSFYALYSSGEEAMLYGSIVTFLGWTLYGLVSPRFELKNKHG [P0AAF1]”, the “total protein half-life in vivo” value [1] was 6.73 ± 1.1 h, the “total protein half-life in vivo” value [2] was 5.34 ± 1 h and the “total protein half-life in vivo” value [3] was over 8 h. The “total protein half-life in vivo” value [4] was over 16 h, the “total protein half-life in vivo” value [5] was 4.53 h and the “total protein half-life in vivo” value [6] was over 16 h.
In the case of “MSQATSMRKRHRFNSRMTRIVLLISFIFFFGRFIYSSVGAWQHHQSKKEAQQSTLSVESPVQR”, the “total protein half-life in vivo” value [1] is reported as 4.55 h, the “total protein half-life in vivo” value [7] is reported as 4.47 h and the “total protein half-life in vivo” value [8] is reported as 4.32 h. For the same sequence, the “total protein half-life in vivo” value [9] was 4.57 ± 0.97 h, the “total protein half-life in vivo” value [2] was 4.09 ± 0.36 h and the “total protein half-life in vivo” value [10] was 1.7 ± 0.046 h. The “total protein half-life in vivo” value [3] was 3.19 h, the “total protein half-life in vivo” value [4] was 5.95 h and the “total protein half-life in vivo” value [5] was 3.526 ± 0.027 h. For the same sequence, the “total protein half-life in vivo” value [6] was 7.56 ± 0.76 h and the “total protein half-life in vivo” value [11] was 4.32 ± 0.086 h.
For “MSQDPFQEREAEKYANPIPSREFILEHLTKREKPASRDELAVELHIEGEEQLEGLRRRLRAMERDGQLVFTRRQCYALPERLDLVKGTVIGHRDGYGFLRVEGRKDDLYLSSEQMKTCIHGDQVLAQPLGADRKGRREARIVRVLVPKTSQIVGRYFTEAGVGFVVPDDSRLSFDILIPPDQIMGARMGFVVVVELTQRPTRRTKAVGKIVEVLGDNMGTGMAVDIALRTHEIPYIWPQAVEQQVAGLKEEVPEEAKAGRVDLRDLPLVTIDGEDARDFDDAVYCEKKRGGGWRLWVAIADVSYYVRPSTPLDREARNRGTSVYFPSQVIPMLPEVLSNGLCSLNPQVDRLCMVCEMTVSSKGRLTGYKFYEAVMSSHARLTYTKVWHILQGDQDLREQYAPLVKHLEELHNLYKVLDKAREERGGISFESEEAKFIFNAERRIERIEQTQRNDAHKLIEECMILANISAARFVEKAKEPALFRIHDKPSTEAITSFRSVLAELGLELPGGNKPEPRDYAELLESVADRPDAEMLQTMLLRSMKQAIYDPENRGHFGLALQSYAHFTSPIRRYPDLTLHRAIKYLLAKEQGHQGNTTETGGYHYSMEEMLQLGQHCSMAERRADEATRDVADWLKCDFMLDQVGNVFKGVISSVTGFGFFVRLDDLFIDGLVHVSSLDNDYYRFDQVGQRLMGESSGQTYRLGDRVEVRVEAVNMDERKIDFSLISSERAPRNVGKTAREKAKKGDAGKKGGKRRQVGKKVNFEPDSAFRGEKKTKPKAAKKDARKAKKPSAKTQKIAAATKAKRAAKKKVAE”, the “total protein half-life in vivo” value [1] was 6.54 ± 0.13 h, the “total protein half-life in vivo” value [8] was 5.66 ± 0.29 h and the “total protein half-life in vivo” value [9] was 5.87 ± 0.12 h. For the same sequence, the “total protein half-life in vivo” value [2] was 5.35 ± 0.14 h, the “total protein half-life in vivo” value [10] was 3.06 ± 0.13 h and the “total protein half-life in vivo” value [3] was 6.06 ± 0.13 h. The “total protein half-life in vivo” value [4] was 12.1 ± 0.14 h, the “total protein half-life in vivo” value [5] was 5.67 ± 0.095 h and the “total protein half-life in vivo” value [6] was 9.82 ± 0.13 h. For the same sequence, the “total protein half-life in vivo” value [12] was 5.679 ± 0.029 h and the “total protein half-life in vivo” value [11] was 11.2 ± 0.32 h.
In the case of “MSQETPASTTEAQIKNKRRISPFWLLPFIALMIASWLIWDSYQDRGNTVTIDFMSADGIVPGRTPVRYQGVEVGTVQDISLSDDLRKIEVKVSIKSDMKDALREETQFWLVTPKASLAGVSGLDALVGGNYIGMMPGKGKEQDHFVALDTQPKYRLDNGDLMIHLQAPDLGSLNSGSLVYFRKIPVGKVYDYAINPNKQGVVIDVLIERRFTDLVKKGSRFWNVSGVDANVSISGAKVKLESLAALVNGAIAFDSPEESKPAEAEDTFGLYEDLAHSQRGVIIKLELPSGAGLTADSTPLMYQGLEVGQLTKLDLNPGGKVTGEMTVDPSVVTLLRENTRIELRNPKLSLSDANLSALLTGKTFELVPGDGEPRKEFVVVPGEKALLHEPDVLTLTLTAPESYGIDAGQPLILHGVQVGQVIDRKLTSKGVTFTVAIEPQHRELVKGDSKFVVNSRVDVKVGLDGVEFLGASASEWINGGIRILPGDKGEMKASYPLYANLEKALENSLSDLPTTTVSLSAETLPDVQAGSVVLYRKFEVGEVITVRPRANAFDIDLHIKPEYRNLLTSNSVFWAEGGAKVQLNGSGLTVQASPLSRALKGAISFDNLSGASASQRKGDKRILYASETAARAVGGQITLHAFDAGKLAVGMPIRYLGIDIGQIQTLDLITARNEVQAKAVLYPEYVQTFARGGTRFSVVTPQISAAGVEHLDTILQPYINVEPGRGNPRRDFELQEATITDSRYLDGLSIIVEAPEAGSLGIGTPVLFRGLEVGTVTGMTLGTLSDRVMIAMRISKRYQHLVRNNSVFWLASGYSLDFGLTGGVVKTGTFNQFIRGGIAFATPPGTPLAPKAQEGKHFLLQESEPKEWREWGTALPK”, the “total protein half-life in vivo” value [1] is reported as 6.34 ± 0.49 h, the “total protein half-life in vivo” value [7] is reported as 6.12 ± 0.52 h and the “total protein half-life in vivo” value [8] is reported as 6.516 ± 0.036 h. For the same sequence, the “total protein half-life in vivo” value [9] was 6.06 ± 0.19 h, the “total protein half-life in vivo” value [2] was 6.04 ± 0.27 h and the “total protein half-life in vivo” value [10] was 3.01 ± 0.3 h. For the same sequence, the “total protein half-life in vivo” value [5] was 6.32 ± 0.48 h, the “total protein half-life in vivo” value [6] was 13.1 ± 0.76 h and the “total protein half-life in vivo” value [12] was 6.43 ± 0.74 h. The “total protein half-life in vivo” value [11] was 13.5 ± 0.26 h.
For “MSQKTLFTKSALAVAVALISTQAWSAGFQLNEFSSSGLGRAYSGEGAIADDAGNVSRNPALITMFDRPTFSAGAVYIDPDVNISGTSPSGRSLKADNIAPTAWVPNMHFVAPINDQFGWGASITSNYGLATEFNDTYAGGSVGGTTDLETMNLNLSGAYRLNNAWSFGLGFNAVYARAKIERFAGDLGQLVAGQIMQSPAGQTQQGQALAATANGIDSNTKIAHLNGNQWGFGWNAGILYELDKNNRYALTYRSEVKIDFKGNYSSDLNRAFNNYGLPIPTATGGATQSGYLTLNLPEMWEVSGYNRVDPQWAIHYSLAYTSWSQFQQLKATSTSGDTLFQKHEGFKDAYRIALGTTYYYDDNWTFRTGIAFDDSPVPAQNRSISIPDQDRFWLSAGTTYAFNKDASVDVGVSYMHGQSVKINEGPYQFESEGKAWLFGTNFNYAF”, the “total protein half-life in vivo” value [1] was 6.74 ± 1.8 h, the “total protein half-life in vivo” value [2] was 5.52 ± 0.67 h and the “total protein half-life in vivo” value [10] was 3.2 ± 0.064 h. The “total protein half-life in vivo” value [3] was 6.165 ± 0.014 h, the “total protein half-life in vivo” value [4] was 10.9 ± 0.23 h and the “total protein half-life in vivo” value [5] was 6.3 ± 0.37 h. The “total protein half-life in vivo” value [6] was 11.1 ± 0.23 h, the “total protein half-life in vivo” value [12] was 6.09 ± 0.34 h and the “total protein half-life in vivo” value [11] was 12.2 ± 1.2 h.
For “MSQLCPCGSAVEYSLCCHPYVSGEKVAPDPEHLMRSRYCAFVMQDADYLIKTWHPSCGAAALRAELMAGFAHTEWLGLTVFEHCWQDADNIGFVSFVARFTEGGKTGAIIERSRFLKENGQWYYIDGTRPQFGRNDPCPCGSGKKFKKCCGQ”, the “total protein half-life in vivo” value [1] was 5.73 ± 0.5 h, the “total protein half-life in vivo” value [8] was over 8 h and the “total protein half-life in vivo” value [2] was 5.47 h. For the same sequence, the “total protein half-life in vivo” value [3] was 6.31 h, the “total protein half-life in vivo” value [5] was 5.43 ± 0.68 h and the “total protein half-life in vivo” value [6] was 8.52 ± 0.57 h. For the same sequence, the “total protein half-life in vivo” value [12] was 5.3 ± 0.3 h.

Reference: the supplement of paper PMC11246515
